Measured values: patent US20220204603A1 (PHARMABCINE, published 2022)

Key:
[1] = molecular target: T1, His-tagged mouse Ang1 (sino, 50300-M07H) (mouse, UniProt O08538 20-498); assay: binding ELISA, His-tagged mouse Ang1 coated at 1 µg/ml, detection with HRP anti-human IgG(kappa) [panel 'mouse Ang1 binding ELISA']
T1 construct: Bought protein; not shown: His tag
T1 sequence (looked up): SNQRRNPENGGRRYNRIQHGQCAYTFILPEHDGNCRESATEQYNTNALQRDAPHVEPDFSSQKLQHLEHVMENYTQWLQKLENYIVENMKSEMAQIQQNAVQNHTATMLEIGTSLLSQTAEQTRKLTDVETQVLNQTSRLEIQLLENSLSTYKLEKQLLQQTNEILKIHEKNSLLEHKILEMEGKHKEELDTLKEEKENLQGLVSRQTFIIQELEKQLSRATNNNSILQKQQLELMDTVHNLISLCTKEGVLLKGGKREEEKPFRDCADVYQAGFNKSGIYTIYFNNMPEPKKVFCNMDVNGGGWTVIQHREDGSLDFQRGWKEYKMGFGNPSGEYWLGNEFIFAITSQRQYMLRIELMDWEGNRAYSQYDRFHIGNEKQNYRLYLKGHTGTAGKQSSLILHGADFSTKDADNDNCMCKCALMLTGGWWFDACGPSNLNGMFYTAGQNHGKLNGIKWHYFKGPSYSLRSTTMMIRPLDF
Method: 1 μg/ml (100 μl per well) of a His-tagged human (R&D systems, 623-AN/CF) or mouse (sino, 50298-M07H) Ang2 solution or a His-tagged human (R&D systems, 923-AN/CF) or mouse (sino, 50300-M07H) Ang1 solution was added to a 96-well immunoplate (Nunc, US) and allowed to stand overnight at 4° C. for adsorption. The next day, the solution was washed three times with PBS containing 0.05% Tween-20 (hereinafter, referred to as PBST), and 200 μl of a 2% BSA/PBST solution was added to each well and then allowed to stand at room temperature for 2 hours to perform blocking. After washing three times with PBST, 100 μl of each test antibody solution was added to each well according to concentration to cause binding at room temperature for 1 hour, and then washing was performed three times with PBST, 100 μl of HRP-conjugated goat anti-human IgG(kappa) (bethyl lab #A80-115P) diluted to 1:2000 was added and allowed to react at room temperature for 1 hour, thereby inducing binding, and after washing three times with PBST, color development was performed using 100 μl of a TMB substrate reagent. The color development reaction was stopped by adding 50 μl of 2N H₂SO₄, and a Sunrise microplate reader (TECAN, CH) was used to measure specific absorbance OD₄₅₀₋₆₃₀ (FIG. 3).

[2] = molecular target: T2, human Ang2 (construct not stated) (human, UniProt O15123 19-496, limits assumed); assay: cell-based or functional assay
T2 sequence (looked up): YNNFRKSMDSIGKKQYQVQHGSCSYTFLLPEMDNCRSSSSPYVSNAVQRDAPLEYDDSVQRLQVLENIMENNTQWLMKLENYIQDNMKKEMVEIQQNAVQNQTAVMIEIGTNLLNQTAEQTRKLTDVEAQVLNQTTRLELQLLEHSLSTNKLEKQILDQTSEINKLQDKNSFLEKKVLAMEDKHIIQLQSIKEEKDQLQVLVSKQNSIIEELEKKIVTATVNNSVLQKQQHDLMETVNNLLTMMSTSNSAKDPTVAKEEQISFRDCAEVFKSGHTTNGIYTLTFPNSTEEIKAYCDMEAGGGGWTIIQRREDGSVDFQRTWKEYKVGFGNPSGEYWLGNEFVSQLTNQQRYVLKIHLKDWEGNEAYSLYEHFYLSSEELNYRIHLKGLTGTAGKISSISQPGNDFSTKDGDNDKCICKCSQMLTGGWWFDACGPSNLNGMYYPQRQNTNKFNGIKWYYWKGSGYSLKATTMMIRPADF

[3] = molecular target: T2, human Ang2 (construct not stated); assay: SPR Biacore T200, antibody captured on protein A chip, Ang2 as analyte, 1:1 model
Method: (§1) To analyze the binding affinity of the selected anti-Ang2 antibodies, affinity analysis for human Ang2 and mouse Ang2 was performed using BIACORE® T200 (GE Healthcare). A protein A sensor chip was used, and an experiment was conducted in accordance with the manufacturer's manual. Detailed analysis conditions are as follows. 2000 response units (RU) of protein A were immobilized, 25 RU of anti-Ang2 antibody candidates were used for binding, and various concentrations of human Ang2 and mouse Ang2 were allowed to bind. The starting concentrations for analysis are 100 nM and 150 nM, respectively. The analysis proceeded at a flow rate of 30 μl/min, the binding and dissociation time of human Ang2 was measured as 300 seconds and 2000 seconds, respectively, and the binding and dissociation time of mouse Ang2 was analyzed as 300 seconds and 1000 seconds, respectively. Analysis was performed using a 1:1 binding model as an analytical model.

[4] = molecular target: T3, mouse Ang2 (construct not stated) (mouse, UniProt O35608 19-496, limits assumed); assay: as above
T3 construct: also called mAng2
T3 sequence (looked up): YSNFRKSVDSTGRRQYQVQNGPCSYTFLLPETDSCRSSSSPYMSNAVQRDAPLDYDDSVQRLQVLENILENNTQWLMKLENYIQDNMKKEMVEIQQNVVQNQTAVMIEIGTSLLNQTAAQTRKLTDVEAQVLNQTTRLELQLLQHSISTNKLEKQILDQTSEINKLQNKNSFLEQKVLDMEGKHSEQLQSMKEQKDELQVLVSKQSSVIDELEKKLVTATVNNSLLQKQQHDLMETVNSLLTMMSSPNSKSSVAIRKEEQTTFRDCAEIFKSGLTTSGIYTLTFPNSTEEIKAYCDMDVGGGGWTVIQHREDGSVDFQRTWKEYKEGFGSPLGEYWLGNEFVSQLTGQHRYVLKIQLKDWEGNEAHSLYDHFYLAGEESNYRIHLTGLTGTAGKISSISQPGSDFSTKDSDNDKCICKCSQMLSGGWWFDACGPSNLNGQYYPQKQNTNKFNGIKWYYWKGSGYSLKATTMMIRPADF
Method: as §1

B1: No. 3 anti-Ang2 antibody (IgG) (antibody, V domains shown)
VH: QMQLVQSGGGLVQPGRSLKLSCAASGFSFDDYAMHWVRQAPGKGLEWVATIKDDGSQTYYVDSVKGRFTISRDNAKSSLFLQMNSLRAEDTAVYYCTTEGLMNGLHFDMWGQGTMVTVSS
VL: LVLTQPPSVSGAPGQGVTISCTGSSSNIGAGYDVHWYQQFPGTAPKLLISGNNNRPSGLPDRFSGSKSGTSASLAITGLQAEDEADYYCQSYDSRLGVVFGGGTKLTVLG
notes: IgG form: VH cloned into Invivogen pfusess-hchg1 (heavy chain constant region), VL into Invivogen pfuse2ss-hclk (light chain constant region); Expressed in Expi293F, purified on Protein A; also called 1D10
With B1 the binding result [1] was “no binding (tested: 2 mg/ml (unit as read in the legend))”, the “IC50 of Tie2 phosphorylation (Phospho-Tie2 ELISA) in human Tie2-overexpressing cells treated with human Ang2 (5 µg/ml) preincubated with antibody” value (from here on “IC50 of Tie2 phosphorylation”) [2] was 8.53 nM and the Kd [3] was 0.127 nM. It also gave a koff [3] of 4.22e-05 s⁻¹, a kon [3] of 334000 M⁻¹ s⁻¹ and a Kd [4] of 0.538 nM. The koff [4] was 8.53e-05 s⁻¹ and the kon [4] was 158000 M⁻¹ s⁻¹.

B2: No. 4 anti-Ang2 antibody (IgG) (antibody, V domains shown)
VH: QVQLVESGAEVKRPGESLRISCKTSGYSFTSYWIHWVRQMPGKELEWMGSIYPGNSDTRYSPSFQGHVTISADSSSSTAYLQWSSLKASDTAMYYCTTEGLMNGLHFDMWGQGTMVTVSS
VL: DIVMTQTPLSLPVTPGEPASISCRSSQSLLHSLGDNYLDWYLQKPGQSPQLLIYLGSKRAAGVPDRFSGSGSGTDFTLKISRVEAEDVGVYYCMQSLQTPPYTFGQGTKLEIKR
notes: IgG form: VH cloned into Invivogen pfusess-hchg1, VL into Invivogen pfuse2ss-hclk; also called 2D8
In the case of B2, the binding result [1] is reported as “no binding (tested: 2 mg/ml (unit as read in the legend))”, the “IC50 of Tie2 phosphorylation” value [2] is reported as 12.3 nM and the Kd [3] is reported as 0.217 nM. The koff [3] was 5.93e-05 s⁻¹, the kon [3] was 273000 M⁻¹ s⁻¹ and the Kd [4] was 0.45 nM. For the same binder, the koff [4] was 7.05e-05 s⁻¹ and the kon [4] was 157000 M⁻¹ s⁻¹.

B3: No. 8 anti-Ang2 antibody (IgG) (antibody, V domains shown)
VH: QVQLVESGGGLVKPGGSLRLSCAASGFTFSSYSMNWVRQAPGKGLEWVSSISASDGATYYADSVRGRFTISRDNSRSTLYLQMNSLRAEDTAVYYCAKILAGYSGPMGGMDVWGQGTTVTVSS
VL: DIQMTQSPSSLSASVGDRVTITCRASRDISNYLAWYQQKPGKAPKSLIYGASNLQSGVSSQFSGSGSGTDFTLTINSLQPEDSATYYCQQYYSYPLTFGGGTKVDIKR
notes: IgG form: VH cloned into Invivogen pfusess-hchg1, VL into Invivogen pfuse2ss-hclk; also called 3A10
With B3 the binding result [1] was “no binding (tested: 2 mg/ml (unit as read in the legend))”, the “IC50 of Tie2 phosphorylation” value [2] was 20.2 nM and the Kd [3] was 0.163 nM. For the same binder, the koff [3] was 4.37e-05 s⁻¹, the kon [3] was 268000 M⁻¹ s⁻¹ and the Kd [4] was 0.463 nM. The koff [4] was 6.69e-05 s⁻¹ and the kon [4] was 144000 M⁻¹ s⁻¹.

B4: No. 41 anti-Ang2 antibody (IgG) (antibody, V domains shown)
VH: QVQLVESGGGLVQPGGSLRLSCEASGFAFGRYEMNWVRQAPGKGLEWIAYIDTGGGAKVYADSVKGRFTISRDDSKNSLYLQMNSLRAEDTAVYYCTTEGLMNGLHFDMWGQGTMITVSS
VL: DIQMTQSPSTLSASVGDRVAITCRASQAISTWLAWYQQKPGKAPKLLIYTASTLESGVPSRFSGSGSGTDFTLTINSLQPDDFATYYCQQLNSYPYTFGGGTKVEIKR
notes: IgG form: VH cloned into Invivogen pfusess-hchg1, VL into Invivogen pfuse2ss-hclk; also called 2B2
B4 was tested, and the binding result [1] was “no binding (tested: 2 mg/ml (unit as read in the legend))”, the “IC50 of Tie2 phosphorylation” value [2] was 11 nM and the Kd [3] was 0.243 nM. It also gave a koff [3] of 7.77e-05 s⁻¹, a kon [3] of 320000 M⁻¹ s⁻¹ and a Kd [4] of 0.328 nM. It also gave a koff [4] of 9.47e-05 s⁻¹ and a kon [4] of 289000 M⁻¹ s⁻¹.

B5: No. 46 anti-Ang2 antibody (IgG) (antibody, V domains shown)
VH: QVQLVESGGGLVQPGRSLRLSCAASGFTFDDCAMHWVRQAPGKGLEWVSGISGNSKNVAYADSVKGRFSISRDDAKNSLYLQMNSLRAEDTAVYYCARDPAYSQFDYWGQGTLITVSS
VL: QSALTQPPSLSATPGQRVTISCSGSSSNVGGYPVNWYQQVPGAAPKLLMYTDYKRPSGVPDRFFGSKSGTSASLAISGLQSEDEADYYCATWDDNLNGYVFGTGTKVTVLG
notes: IgG form: VH cloned into Invivogen pfusess-hchg1, VL into Invivogen pfuse2ss-hclk; also called 3C6
For B5, the binding result [1] was “no binding (tested: 2 mg/ml (unit as read in the legend))”, the “IC50 of Tie2 phosphorylation” value [2] was 10.1 nM and the Kd [3] was 0.314 nM. It also gave a koff [3] of 8.62e-05 s⁻¹, a kon [3] of 274000 M⁻¹ s⁻¹ and a Kd [4] of 0.193 nM. For the same binder, the koff [4] was 8.94e-05 s⁻¹ and the kon [4] was 465000 M⁻¹ s⁻¹.
